What all share (test): EMSA; Gel-shift buffer not given (as described in ref. 6); TnsD stored in 500 mM KCl, 50 mM Tris-HCl pH 8.0, 1 mM EDTA, 2 mM DTT, 25% glycerol
One data set has as its target T1, TnsD C447Y (Escherichia coli (transposon Tn7), UniProt P13991 1-508, C447Y).
T1 sequence: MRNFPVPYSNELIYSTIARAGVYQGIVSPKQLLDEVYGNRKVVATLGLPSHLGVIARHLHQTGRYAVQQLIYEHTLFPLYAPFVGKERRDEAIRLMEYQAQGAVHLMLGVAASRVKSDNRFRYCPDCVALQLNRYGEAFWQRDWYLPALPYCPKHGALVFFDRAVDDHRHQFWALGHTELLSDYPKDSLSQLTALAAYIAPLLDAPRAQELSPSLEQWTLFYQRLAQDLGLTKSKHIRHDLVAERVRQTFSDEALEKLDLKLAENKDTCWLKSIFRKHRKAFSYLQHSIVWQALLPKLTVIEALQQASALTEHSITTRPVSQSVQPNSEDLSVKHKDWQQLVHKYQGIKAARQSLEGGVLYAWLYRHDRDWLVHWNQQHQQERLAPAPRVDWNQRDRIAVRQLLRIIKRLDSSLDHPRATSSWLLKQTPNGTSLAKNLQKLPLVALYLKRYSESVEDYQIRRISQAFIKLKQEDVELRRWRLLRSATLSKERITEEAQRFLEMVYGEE
Conditions: protein: recombinant; tags: intein-chitin tag, cleaved with DTT.

For a further data set, the target named is T2, TnsD Q340Z (Escherichia coli (transposon Tn7), UniProt P13991 1-339).
T2 sequence: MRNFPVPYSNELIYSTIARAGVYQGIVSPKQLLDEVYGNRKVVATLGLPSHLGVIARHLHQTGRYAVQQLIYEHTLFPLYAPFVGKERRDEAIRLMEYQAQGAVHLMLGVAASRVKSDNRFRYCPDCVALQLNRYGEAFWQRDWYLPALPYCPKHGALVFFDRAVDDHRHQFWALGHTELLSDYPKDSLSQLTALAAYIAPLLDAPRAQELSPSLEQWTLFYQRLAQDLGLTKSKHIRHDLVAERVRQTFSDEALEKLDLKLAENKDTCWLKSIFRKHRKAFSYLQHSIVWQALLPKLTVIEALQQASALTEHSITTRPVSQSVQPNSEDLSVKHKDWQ
Conditions: protein: recombinant.

The target in the next data set is T3, TnsD W371Z (Escherichia coli (transposon Tn7), UniProt P13991 1-370).
T3 sequence: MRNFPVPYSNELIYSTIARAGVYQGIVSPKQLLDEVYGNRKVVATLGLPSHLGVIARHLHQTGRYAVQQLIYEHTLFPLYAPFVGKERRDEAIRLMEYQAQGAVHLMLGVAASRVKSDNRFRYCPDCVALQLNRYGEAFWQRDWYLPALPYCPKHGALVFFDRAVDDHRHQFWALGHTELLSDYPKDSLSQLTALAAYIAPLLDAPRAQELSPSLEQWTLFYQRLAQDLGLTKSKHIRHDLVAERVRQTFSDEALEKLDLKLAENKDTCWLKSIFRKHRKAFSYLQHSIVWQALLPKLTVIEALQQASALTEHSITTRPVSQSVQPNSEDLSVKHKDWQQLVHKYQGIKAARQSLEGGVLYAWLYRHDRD
The note with it: protein: recombinant.

A further data set addresses T4, TnsD A486H (Escherichia coli (transposon Tn7), UniProt P13991 1-508, A486H).
T4 sequence: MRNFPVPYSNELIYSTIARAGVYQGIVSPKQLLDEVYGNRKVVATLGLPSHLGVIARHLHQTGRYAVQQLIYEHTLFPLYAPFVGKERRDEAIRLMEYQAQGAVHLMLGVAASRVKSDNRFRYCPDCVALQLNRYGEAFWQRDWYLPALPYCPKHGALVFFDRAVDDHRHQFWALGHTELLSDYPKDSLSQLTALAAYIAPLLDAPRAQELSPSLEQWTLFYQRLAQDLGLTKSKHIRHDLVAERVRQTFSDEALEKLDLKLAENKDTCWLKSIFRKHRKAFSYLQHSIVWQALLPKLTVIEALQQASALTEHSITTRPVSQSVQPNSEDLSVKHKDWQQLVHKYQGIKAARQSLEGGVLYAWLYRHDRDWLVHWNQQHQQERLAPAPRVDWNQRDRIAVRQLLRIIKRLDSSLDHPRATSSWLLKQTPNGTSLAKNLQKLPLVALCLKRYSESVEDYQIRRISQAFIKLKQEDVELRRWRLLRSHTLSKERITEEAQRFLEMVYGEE
The note with it: protein: recombinant; tags: intein-chitin tag, cleaved with DTT.

The target of the next data set is T5, TnsD G109E (Escherichia coli (transposon Tn7), UniProt P13991 1-508, G109E).
T5 sequence: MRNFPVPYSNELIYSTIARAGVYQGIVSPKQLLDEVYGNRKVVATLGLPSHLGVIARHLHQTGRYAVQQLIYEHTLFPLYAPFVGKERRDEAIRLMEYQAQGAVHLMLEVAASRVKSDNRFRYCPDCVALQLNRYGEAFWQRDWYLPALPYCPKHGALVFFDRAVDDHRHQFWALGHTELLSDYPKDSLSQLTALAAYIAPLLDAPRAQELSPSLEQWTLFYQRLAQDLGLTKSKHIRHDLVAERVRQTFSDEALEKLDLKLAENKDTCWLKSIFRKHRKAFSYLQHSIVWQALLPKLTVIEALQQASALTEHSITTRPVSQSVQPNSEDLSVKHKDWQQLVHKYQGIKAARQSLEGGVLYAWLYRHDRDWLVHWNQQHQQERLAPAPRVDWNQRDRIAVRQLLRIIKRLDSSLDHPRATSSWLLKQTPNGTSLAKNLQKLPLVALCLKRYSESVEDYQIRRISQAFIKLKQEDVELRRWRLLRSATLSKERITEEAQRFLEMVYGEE
Conditions: protein: recombinant; tags: intein-chitin tag, cleaved with DTT.

B1: attTn7 wt (+23 to +58) (dsDNA)
DNA 1: CCGCGTAACCTGGCAAAATCGGTTACGGTTGAGTAA
DNA 2: TTACTCAACCGTAACCGATTTTGCCAGGTTACGCGG
For B1, the binding signal was 0.7 relative to wt with TnsD C447Y; < 0.05 relative to wt with TnsD Q340Z; < 0.05 relative to wt in the data set with TnsD W371Z; 0.1 relative to wt with TnsD A486H; 0.05 relative to wt in the data set with TnsD G109E.

These data come from article PMC2918618, “Characterization of the TnsD-attTn7 complex that promotes site-specific insertion of Tn7” (Mobile DNA, 2010).
